This note sets out measurements from US20180110875A1 (SUZHOU SUNCADIA BIOPHARMACEUTICALS, published 2018).

In test [1] the target is T1, human c-Met expressed on cells (human, UniProt P08581 25-1390). The experiment in a line: cell-based or functional assay.
The target of test [2] is T2, Human c-Met ECD His Tag (Human c-Met ECD-his) recombinant protein (human, UniProt P08581 25-932).
T2 construct: extracellular domain; Expressed in 293F cells; also called human c-Met-His; not shown: C-terminal His tag
The experiment in a line: ELISA, human c-Met-His coated at 2 ug/ml. A general note: In an ELISA, binding on a coated surface is turned into a signal by an enzyme label.

Test [3] has as its target T3, Human c-Met extracellular region (ECD) and murine Fc region fusion protein (Human c-Met ECD-mFc) (human, UniProt P08581 25-932).
T3 construct: extracellular domain; Expressed in 293F cells; not shown: murine Fc region
The experiment in a line: blocking ELISA of HGF/c-Met binding: c-Met ECD-mFc coated, antibody titrated, human HGF 20 ng/ml. As to the method: c-Met ECD-mFc (Example 1) was diluted in PBS (Hyclone, Cat #SH30256.01B) with a final concentration of 2 μg/ml, and then a 96-well ELISA plate (Costar, cat#2592) was coated with c-Met ECD-mFc at room temperature overnight. The plate was washed with PBST (PBS+0.05% tween 20, Simga, Cat#P1379) 3 times on a plate washer (Suppler: BioTex; Model: ELX405; S/N: 251504). 300 μl blocking solution PBS+1% BSA (Roche, Cat #738328) was added to the 96-well plate, and the plate was incubated for 60 minutes at 37° C. After the plate was washed with PBST 3 times, 50 μl of antibody diluted by blocking solution was added to the 96-well plate, and the plate was incubated for 90 minutes at 37° C. […] After the plate was washed with PBST 3 times, 100 μl of horseradish peroxidase (ebioscience, #18-4100-51) diluted with blocking solution was added to the 96-well plate and incubated for 30 minutes. After the plate was washed with PBST 3 times, 100 μl substrate (ebioscience, cat#00-4201-56) was added to the plate and incubated for 10 minutes at room temperature. 100 μl stop solution (2N H₂SO₄) was added, and data was read by a […] microplate reader (Supplier: Moleculer Devices; Model: MNR0643; Equip ID: TMRP001). Data analysis was performed by SoftMax Pro v5.

Test [4] concerns the target T4, Human c-Met extracellular Sema region and Flag-His tag (Human c-Met Sema-Flis) (human, UniProt P08581 25-515, limits assumed).
T4 construct: domain: extracellular Sema region; Expressed in 293F cells; also called Sema-His; c-Met antigen Sema-His; not shown: C-terminal Flag-His tag
Put plainly: SPR (Biacore), antibody captured by anti-human IgG, Sema-His 200-0.78 nM as analyte, 1:1 Langmuir. As to the method: Anti-mouse IgG (GE Life Sciences catalog # BR-1008-38) or anti-human IgG (GE Life Sciences catalog # BR-1008-39) antibodies were respectively diluted to 30 μg/ml and 50 μg/ml by sodium acetate solution, pH 5.0 (GE Healthcare, Cat#BR-1003-51). An amino coupling kit (GE Life Sciences, Cat#BR100050) was immobilized onto the test channels and control channels on a CMS chip (GE Life Sciences catalog # BR-1000-12), and the coupling level was set at 15000RU. Running buffer PBS (Hyclone, Cat#SH30256.01B)+0.05% P20 (GE Life Sciences, Cat#BR-1000-54) was used to dilute the c-Met antibody to 1.5 μg/ml. Antigen Sema-His was diluted to 200 nM with running buffer, and then diluted at a 1:2 dilution with the same buffer until it reached 0.78 nM. The diluted antibody passed through the test channel for 1 minute at a speed of 30 μl/min, and the antigen passed through the test channels and control channels for 3 minutes at the same speed. After 10 minutes of dissociation, the flow speed was adjusted to 10 μl/min, and regeneration buffer was passed through test channels and control channels for 3 minutes. Data was fitted by BiaEvaluation 4.1 after double deduction, and the fitting model was a 1:1 Langmuir model.

The target of test [5] is T1, human c-Met expressed on cells. The experiment in a line: cell-based or functional assay. This is another data set of the same source.
Test [6] has the same target. The experiment in a line: cell-based or functional assay. This is another data set of the same source.

Some results are limits rather than exact numbers.

T2 sequence (P08581 25-932): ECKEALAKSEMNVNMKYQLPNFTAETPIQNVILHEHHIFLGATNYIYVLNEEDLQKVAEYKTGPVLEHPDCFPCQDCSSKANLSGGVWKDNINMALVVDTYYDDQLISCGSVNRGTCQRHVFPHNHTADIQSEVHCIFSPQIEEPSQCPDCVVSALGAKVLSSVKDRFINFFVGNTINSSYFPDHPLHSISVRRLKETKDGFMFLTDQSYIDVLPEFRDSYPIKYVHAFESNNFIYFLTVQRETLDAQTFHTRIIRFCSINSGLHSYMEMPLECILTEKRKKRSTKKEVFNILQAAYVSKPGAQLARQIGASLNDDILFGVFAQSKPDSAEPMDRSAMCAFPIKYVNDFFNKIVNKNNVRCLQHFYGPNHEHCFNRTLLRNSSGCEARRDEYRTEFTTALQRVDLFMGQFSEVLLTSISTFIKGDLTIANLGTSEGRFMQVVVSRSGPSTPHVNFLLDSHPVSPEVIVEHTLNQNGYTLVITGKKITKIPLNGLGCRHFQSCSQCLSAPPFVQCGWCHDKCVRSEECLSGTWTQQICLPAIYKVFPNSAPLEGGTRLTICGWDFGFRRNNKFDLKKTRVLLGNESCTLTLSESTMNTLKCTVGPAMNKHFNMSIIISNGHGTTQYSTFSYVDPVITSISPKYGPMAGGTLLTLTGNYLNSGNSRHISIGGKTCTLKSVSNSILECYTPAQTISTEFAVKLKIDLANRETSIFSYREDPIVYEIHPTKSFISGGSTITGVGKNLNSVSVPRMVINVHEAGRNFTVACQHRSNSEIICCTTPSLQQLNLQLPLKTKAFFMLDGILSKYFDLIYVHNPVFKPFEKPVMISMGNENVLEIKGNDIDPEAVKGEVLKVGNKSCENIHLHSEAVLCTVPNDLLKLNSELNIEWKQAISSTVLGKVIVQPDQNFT
T1 sequence (P08581 25-1390): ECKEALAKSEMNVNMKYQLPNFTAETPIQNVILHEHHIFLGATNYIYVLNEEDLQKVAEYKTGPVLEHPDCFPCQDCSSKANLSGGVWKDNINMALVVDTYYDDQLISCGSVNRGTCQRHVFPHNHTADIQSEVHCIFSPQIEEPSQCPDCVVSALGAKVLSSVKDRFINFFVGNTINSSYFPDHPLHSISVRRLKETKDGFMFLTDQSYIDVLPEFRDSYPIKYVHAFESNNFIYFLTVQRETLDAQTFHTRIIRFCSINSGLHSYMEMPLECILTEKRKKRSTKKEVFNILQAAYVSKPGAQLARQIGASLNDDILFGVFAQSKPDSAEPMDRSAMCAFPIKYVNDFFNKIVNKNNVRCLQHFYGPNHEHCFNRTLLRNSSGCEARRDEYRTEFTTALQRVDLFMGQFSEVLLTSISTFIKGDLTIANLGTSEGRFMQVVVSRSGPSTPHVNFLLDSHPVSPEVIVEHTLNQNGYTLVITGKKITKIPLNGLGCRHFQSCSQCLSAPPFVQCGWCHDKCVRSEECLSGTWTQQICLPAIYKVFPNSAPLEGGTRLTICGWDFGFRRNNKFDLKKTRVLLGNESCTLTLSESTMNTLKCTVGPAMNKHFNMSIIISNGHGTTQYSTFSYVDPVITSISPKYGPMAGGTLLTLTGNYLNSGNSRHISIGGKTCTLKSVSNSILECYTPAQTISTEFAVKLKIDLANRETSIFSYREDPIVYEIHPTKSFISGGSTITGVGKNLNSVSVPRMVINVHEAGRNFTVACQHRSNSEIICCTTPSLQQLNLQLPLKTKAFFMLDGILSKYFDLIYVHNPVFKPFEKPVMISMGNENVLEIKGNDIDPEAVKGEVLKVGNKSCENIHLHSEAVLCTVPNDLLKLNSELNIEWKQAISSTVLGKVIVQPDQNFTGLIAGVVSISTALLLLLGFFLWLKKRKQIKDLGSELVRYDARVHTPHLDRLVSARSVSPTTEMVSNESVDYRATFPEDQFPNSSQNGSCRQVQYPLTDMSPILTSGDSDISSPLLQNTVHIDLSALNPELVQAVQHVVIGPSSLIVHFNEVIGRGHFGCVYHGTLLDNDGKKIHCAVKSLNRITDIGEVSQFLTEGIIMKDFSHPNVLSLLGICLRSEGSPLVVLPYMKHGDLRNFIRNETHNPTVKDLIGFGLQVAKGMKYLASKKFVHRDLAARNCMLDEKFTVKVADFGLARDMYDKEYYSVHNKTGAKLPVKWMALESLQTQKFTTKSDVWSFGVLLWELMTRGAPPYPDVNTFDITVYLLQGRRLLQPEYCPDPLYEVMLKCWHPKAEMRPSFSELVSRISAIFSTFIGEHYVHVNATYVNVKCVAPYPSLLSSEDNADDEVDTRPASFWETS
T4 sequence (P08581 25-515 limits assumed): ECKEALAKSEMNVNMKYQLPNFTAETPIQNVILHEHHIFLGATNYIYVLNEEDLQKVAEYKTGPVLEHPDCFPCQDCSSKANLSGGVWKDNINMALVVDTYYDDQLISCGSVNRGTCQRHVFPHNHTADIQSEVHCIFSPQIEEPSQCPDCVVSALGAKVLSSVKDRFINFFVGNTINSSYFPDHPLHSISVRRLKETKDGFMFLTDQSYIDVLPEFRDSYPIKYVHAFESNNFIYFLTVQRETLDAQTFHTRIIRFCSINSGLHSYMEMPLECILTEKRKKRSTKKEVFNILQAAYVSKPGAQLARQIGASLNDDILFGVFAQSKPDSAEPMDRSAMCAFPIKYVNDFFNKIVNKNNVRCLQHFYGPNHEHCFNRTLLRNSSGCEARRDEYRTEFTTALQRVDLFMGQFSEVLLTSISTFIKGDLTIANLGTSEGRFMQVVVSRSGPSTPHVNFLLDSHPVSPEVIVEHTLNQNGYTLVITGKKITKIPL
T3 sequence (P08581 25-932): as the sequence (P08581 25-932) above

B1: Ab-9 humanized antibody (antibody, human IgG2, kappa)
heavy: QVTLKESGPVLVKPTETLTLTCTVSGFSLPNYGVHWVRQPPGKALEWLAVIWSGGSTNYAAAFVSRLRISKDTSKSQVVFTMNNMDPVDTATYYCARNHDNPYNYAMDYWGQGTTVTVSSASTKGPSVFPLAPCSRSTSESTAALGCLVKDYFPEPVTVSWNSGALTSGVHTFPAVLQSSGLYSLSSVVTVPSSNFGTQTYTCNVDHKPSNTKVDKTVERKCCVECPPCPAPPVAGPSVFLFPPKPKDTLMISRTPEVTCVVVDVSHEDPEVQFNWYVDGVEVHNAKTKPREEQFNSTFRVVSVLTVVHQDWLNGKEYKCKVSNKGLPAPIEKTISKTKGQPREPQVYTLPPSREEMTKNQVSLTCLVKGFYPSDIAVEWESNGQPENNYKTTPPMLDSDGSFFLYSKLTVDKSRWQQGNVFSCSVMHEALHNHYTQKSLSLSPGK
light: DIVLTQSPASLAVSPGQRATITCRANKSVSTSTYNYLHWYQQKPGQPPKLLIYLASNLASGVPARFSGSGSGTDFTLTINPVEANDTANYYCQHSRDLPPTFGQGTKLEIKRTVAAPSVFIFPPSDEQLKSGTASVVCLLNNFYPREAKVQWKVDNALQSGNSQESVTEQDSKDSTYSLSSTLTLSKADYEKHKVYACEVTHQGLSSPVTKSFNRGEC
notes: human constant regions, kappa light chain
For B1, in test [1], the “Activity of inhibition of MKN45 cell proliferation, IC50” value is 0.52 nM. The EC50 (commonly the concentration needed to bring the measured effect to its halfway point) in test [2] came out at 0.13 nM. For the same molecule, the IC50 (as a rule, the midpoint of a concentration-inhibition curve) in test [3] was 1.42 nM. Also, in test [4], the Kd (in general, the equilibrium constant for the complex coming apart) was found to be 4 nM.

B2: Anti-c-Met antibody Ab-10-toxin MC-MMAF conjugate (antibody, human IgG2, kappa, V domains shown)
VH: QVQLVESGGGVVQPGRSLRLSCAASGFSLSNYGVHWVRQAPGKGLEWLAVIWSGGSTNYAAAFVSRLTISKDNSKNTVYLQMNSLRAEDTAVYYCARNHDNPYNYAMDYWGQGTTVTVSS
VL: DIVLTQSPDSLAVSLGERATINCRADKSVSTSTYNYLHWYQQKPGQPPKLLIYLASNLASGVPDRFSGSGSGTDFTLTISSLQAEDVAVYYCQHSRDLPPTFGQGTKLEIKR
modifications: MC-MMAF coupled through a propyl mercaptan linker put on the antibody; average y=1.7 per antibody; chain and residues not stated
As for B2, the “IC50 (nM) in MKN45 cell (cytotoxicity, ATP assay)” value in test [5] was 0.51 nM. For the same molecule, in test [6], the “Inhibition of proliferation of BxPC3 cells (CCK), IC50” value worked out at 6.9 nM; the “Inhibition of proliferation of Caki-1 cells (CCK), IC50” value is 6.5 nM; the “Inhibition of proliferation of MKN45 cells (CCK), IC50” value turned out to be 0.17 nM; the “Inhibition of proliferation of NCI-H596 cells (CCK), IC50” value amounted to 104 nM. In test [6], the “Inhibition of proliferation of NCI-H1993 cells (CCK), IC50” value was 2.8 nM; the “Inhibition of proliferation of PC9 cells (CCK), IC50” value amounted to 5.6 nM; the “Inhibition of proliferation of SNU5 cells (CCK), IC50” value was 0.24 nM.

B3: Anti-c-Met antibody Ab-10-toxin conjugate (Example 24) (antibody, V domains shown)
VH: QVQLVESGGGVVQPGRSLRLSCAASGFSLSNYGVHWVRQAPGKGLEWLAVIWSGGSTNYAAAFVSRLTISKDNSKNTVYLQMNSLRAEDTAVYYCARNHDNPYNYAMDYWGQGTTVTVSS
VL: DIVLTQSPDSLAVSLGERATINCRADKSVSTSTYNYLHWYQQKPGQPPKLLIYLASNLASGVPDRFSGSGSGTDFTLTISSLQAEDVAVYYCQHSRDLPPTFGQGTKLEIKR
modifications: toxin intermediate 12h (maleimidocaproyl derivative of toxin 12g) coupled through a propyl mercaptan linker put on the antibody; average y=1.6 per antibody; chain and residues not stated
As to B3, in test [5], the “IC50 (nM) in MKN45 cell (cytotoxicity, ATP assay)” value came to 0.59 nM.

B4: Ab-10 humanized antibody (antibody, human IgG2, kappa)
heavy: QVQLVESGGGVVQPGRSLRLSCAASGFSLSNYGVHWVRQAPGKGLEWLAVIWSGGSTNYAAAFVSRLTISKDNSKNTVYLQMNSLRAEDTAVYYCARNHDNPYNYAMDYWGQGTTVTVSSASTKGPSVFPLAPCSRSTSESTAALGCLVKDYFPEPVTVSWNSGALTSGVHTFPAVLQSSGLYSLSSVVTVPSSNFGTQTYTCNVDHKPSNTKVDKTVERKCCVECPPCPAPPVAGPSVFLFPPKPKDTLMISRTPEVTCVVVDVSHEDPEVQFNWYVDGVEVHNAKTKPREEQFNSTFRVVSVLTVVHQDWLNGKEYKCKVSNKGLPAPIEKTISKTKGQPREPQVYTLPPSREEMTKNQVSLTCLVKGFYPSDIAVEWESNGQPENNYKTTPPMLDSDGSFFLYSKLTVDKSRWQQGNVFSCSVMHEALHNHYTQKSLSLSPGK
light: DIVLTQSPDSLAVSLGERATINCRADKSVSTSTYNYLHWYQQKPGQPPKLLIYLASNLASGVPDRFSGSGSGTDFTLTISSLQAEDVAVYYCQHSRDLPPTFGQGTKLEIKRTVAAPSVFIFPPSDEQLKSGTASVVCLLNNFYPREAKVQWKVDNALQSGNSQESVTEQDSKDSTYSLSSTLTLSKADYEKHKVYACEVTHQGLSSPVTKSFNRGEC
notes: as for B1
Turning to B4, in test [1], the “Activity of inhibition of MKN45 cell proliferation, IC50” value was determined as 0.55 nM. In test [6], the “Inhibition of proliferation of BxPC3 cells (CCK), IC50” value is greater than 1000 nM; the “Inhibition of proliferation of Caki-1 cells (CCK), IC50” value is greater than 1000 nM; the “Inhibition of proliferation of MKN45 cells (CCK), IC50” value amounted to 0.15 nM; the “Inhibition of proliferation of NCI-H596 cells (CCK), IC50” value came to 13.7 nM. In test [6], the “Inhibition of proliferation of PC9 cells (CCK), IC50” value is greater than 1000 nM and the “Inhibition of proliferation of SNU5 cells (CCK), IC50” value was 0.1 nM. Moreover, the EC50 in test [2] was 0.39 nM. In test [3], this molecule yielded an IC50 of 1.5 nM. The same molecule yielded a Kd in test [4] of 8 nM.

B5: Ab-11 humanized antibody (antibody, human IgG2, kappa, V domains shown)
VH: QVQLVESGGGVVQPGRSLRLSCAASGFTLPNYGVHWVRQAPGKGLEWLAVIWSGGSTNYAAAFVSRLTISKDNSKNTVYLQMNSLRAEDTAVYYCARNHDNPYNYAMDYWGQGTTVTVSS
VL: DIVLTQSPDSLAVSLGERATINCRANKSVSTSTYNYLHWYQQKPGQPPKLLIYLASNLASGVPDRFSGSGSGTDFTLTISSLQAEDVAVYYCQHSRDLPPTFGQGTKLEIKR
notes: as for B1
As for B5, the EC50 in test [2] came to 0.2 nM.
